Source: PMC6280533, “Construction and characterization of a synthetic Baculovirus-inducible 39K promoter”

B1: 39K probe 1 (-486 to -532) (dsDNA)
DNA 1: AGTATTTGATATACGTAGGCGTCGTGCGCGGCAACTTGATTGACGTG
DNA 2: CACGTCAATCAAGTTGCCGCGCACGACGCCTACGTATATCAAATACT
B2: 39K probe 4 (+2 to +47) (dsDNA)
DNA 1: AGTAATTACCGACAAATGTTCTAAGCGTAAGGTGTGTCTTCATCAC
DNA 2: GTGATGAAGACACACCTTACGCTTAGAACATTTGTCGGTAATTACT
B3: 39K probe 3 (-310 to -355) (dsDNA)
DNA 1: AATATTTTAATTATATGAACGACAAACAATTGATCACGTACGATTA
DNA 2: TAATCGTACGTGATCAATTGTTTGTCGTTCATATAATTAAAATATT
B4: 39K probe 2 (-386 to -431) (dsDNA)
DNA 1: GACTATCGTATAATATTAAAACCGCGACGCTTCAATTGCGAAATAA
DNA 2: TTATTTCGCAATTGAAGCGTCGCGGTTTTAATATTATACGATAGTC

Legend:
IE-1 (IE1-His) [1] = molecular target: T1, IE-1 (IE1-His) (Bombyx mori nucleopolyhedrovirus (BmNPV), UniProt P33245 1-587); test: EMSA; conditions: protein: recombinant; tags: His (pCold-I); chain copies: 2; label: 5' biotin; blunt
T1 sequence: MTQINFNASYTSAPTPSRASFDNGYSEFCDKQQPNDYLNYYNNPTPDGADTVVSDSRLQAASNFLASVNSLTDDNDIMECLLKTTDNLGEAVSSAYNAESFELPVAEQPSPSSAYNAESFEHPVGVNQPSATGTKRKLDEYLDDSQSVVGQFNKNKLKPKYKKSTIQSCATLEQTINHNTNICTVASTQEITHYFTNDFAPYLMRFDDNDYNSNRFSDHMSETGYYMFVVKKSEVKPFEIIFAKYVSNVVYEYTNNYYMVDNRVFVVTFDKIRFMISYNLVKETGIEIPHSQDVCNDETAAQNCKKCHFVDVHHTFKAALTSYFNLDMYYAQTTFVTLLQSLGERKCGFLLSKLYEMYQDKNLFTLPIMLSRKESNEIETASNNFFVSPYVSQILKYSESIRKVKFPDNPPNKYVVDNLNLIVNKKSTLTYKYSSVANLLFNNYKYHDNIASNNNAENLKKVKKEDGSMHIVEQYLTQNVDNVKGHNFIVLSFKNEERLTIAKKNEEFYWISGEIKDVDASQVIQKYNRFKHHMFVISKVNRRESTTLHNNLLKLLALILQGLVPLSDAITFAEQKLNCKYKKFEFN

IE-1 (IE1-His) [2] = molecular target: T1, IE-1 (IE1-His); test: EMSA; probe 1, 2, 6 pmol/L; IE-1 0.8 ug/L (so in the source); conditions: protein: recombinant; tags: His (pCold-I); chain copies: 2; label: 5' biotin; blunt

| Binder | binding result (IE-1 (IE1-His) [1]) | binding result (IE-1 (IE1-His) [2]) |
| --- | --- | --- |
| B1 | no binding | – |
| B2 | no binding | – |
| B3 | – | binds |
| B4 | no binding | – |
